Sequences and labels used below:
B5: Cft2(S), residues 1-720 (domain or fragment, S. cerevisiae, UniProt Q12102 1-720, looked up)
chain: MTYKYNCCDDGSGTTVGSVVRFDNVTLLIDPGWNPSKVSYEQCIKYWEKVIPEIDVIILSQPTIECLGAHSLLYYNFTSHFISRIQVYATLPVINLGRVSTIDSYASAGVIGPYDTNKLDLEDIEISFDHIVPLKYSQLVDLRSRYDGLTLLAYNAGVCPGGSIWCISTYSEKLVYAKRWNHTRDNILNAASILDATGKPLSTLMRPSAIITTLDRFGSSQPFKKRSKIFKDTLKKGLSSDGSVIIPVDMSGKFLDLFTQVHELLFESTKINAHTQVPVLILSYARGRTLTYAKSMLEWLSPSLLKTWENRNNTSPFEIGSRIKIIAPNELSKYPGSKICFVSEVGALINEVIIKVGNSEKTTLILTKPSFECASSLDKILEIVEQDERNWKTFPEDGKSFLCDNYISIDTIKEEPLSKEETEAFKVQLKEKKRDRNKKILLVKRESKKLANGNAIIDDTNGERAMRNQDILVENVNGVPPIDHIMGGDEDDDEEEENDNLLNLLKDNSEKSAAKKNTEVPVDIIIQPSAASKHKMFPFNPAKIKKDDYGTVVDFTMFLPDDSDNVNQNSRKRPLKDGAKTTSPVNEEDNKNEEEDGYNMSDPISKRSKHRASRYSGFSGTGEAENFDNLDYLKIDKTLSKRTISTVNVQLKCSVVILNLQSLVDQRSASIIWPSLKSRKIVLSAPKQIQNEEITAKLIKKNIEVVNMPLNKIVEFSTTI
notes: Cft2, S. cerevisiae, residues 1-720, lacks the disordered C-terminal region; also called Cft2(short); truncated version of Cft2; source: E. coli BL21 Star (DE3), purified (Ni-NTA, 3C cleavage, MonoQ, Superdex 200)

Assay [1] concerns the target T1, S. cerevisiae polymerase module with an SII tag on Pfs2 (S. cerevisiae, UniProt Q06632 1-1357; P29468 1-568; P42841 1-465; P45976 1-327; Q06102 2-208).
T1 construct: Cft1, S. cerevisiae; Pap1, S. cerevisiae; Pfs2, S. cerevisiae; Fip1, S. cerevisiae; Yth1, S. cerevisiae; That Construct B is the plasmid of this co-infection is surmised from the SII tag on Pfs2; also called Construct B (Cft1-Pap1-Pfs2-SII-Fip1-Yth1); source: Sf9, co-infected with a virus for untagged Cft2 and Ysh1; in lysate, and purified with Cft2 (Strep-Tactin, MonoQ); copies: + + + +
In words: pull-down; Sf9 cells co-infected with viruses for the polymerase module (SII on Pfs2) and for untagged Cft2 and Ysh1; Strep-Tactin in Buffer A, then MonoQ. The conditions noted are these: partners not purified.

Assay [2] concerns the target B5. In words: cross-linking; polymerase module-Cft2(S)-Mpe1-RNA complex (0.5 mg/ml) with 2 mM sulfo-SDA for 2 h on ice, UV 365 nm for 15 min; 20 mM HEPES, 50 mM NaCl, 0.5 mM TCEP, pH 8.0; mass spectrometry, 1 % FDR on link level. Particulars: both partners purified.
Assay [3] deals with B5. In words: cryo-EM structure; sample of polymerase module, Mpe1, Cft2(S) and precleaved CYC1 RNA; only the polymerase module and the yPIM of Cft2 are seen in the map. The conditions noted are these: both partners purified.
The target of assay [4] is T1, S. cerevisiae polymerase module with an …. In words: SEC; analytical, Superose 6 Increase 3.2/300, SEC 50 buffer (20 mM HEPES pH 8, 50 mM NaCl, 0.5 mM TCEP); 5 μM polymerase module or polymerase module-Cft2 complex, 15 μM Mpe1 or variant, 10 μM Cft2(S) or 720 μM yPIM peptide; with or without 10 μM precleaved CYC1 RNA. The conditions noted are these: both partners purified.

The target in assay [5] is T2, Cft1 (S. cerevisiae, UniProt Q06632 1-1357).
T2 construct: Cft1, S. cerevisiae, subunit of the polymerase module of CPF; E. coli codon-optimized gene (GeneArt); source: Sf9, baculovirus, co-expressed with Mpe1-SII, in lysate; also as subunit of the purified polymerase module (Sf9)
T2 sequence: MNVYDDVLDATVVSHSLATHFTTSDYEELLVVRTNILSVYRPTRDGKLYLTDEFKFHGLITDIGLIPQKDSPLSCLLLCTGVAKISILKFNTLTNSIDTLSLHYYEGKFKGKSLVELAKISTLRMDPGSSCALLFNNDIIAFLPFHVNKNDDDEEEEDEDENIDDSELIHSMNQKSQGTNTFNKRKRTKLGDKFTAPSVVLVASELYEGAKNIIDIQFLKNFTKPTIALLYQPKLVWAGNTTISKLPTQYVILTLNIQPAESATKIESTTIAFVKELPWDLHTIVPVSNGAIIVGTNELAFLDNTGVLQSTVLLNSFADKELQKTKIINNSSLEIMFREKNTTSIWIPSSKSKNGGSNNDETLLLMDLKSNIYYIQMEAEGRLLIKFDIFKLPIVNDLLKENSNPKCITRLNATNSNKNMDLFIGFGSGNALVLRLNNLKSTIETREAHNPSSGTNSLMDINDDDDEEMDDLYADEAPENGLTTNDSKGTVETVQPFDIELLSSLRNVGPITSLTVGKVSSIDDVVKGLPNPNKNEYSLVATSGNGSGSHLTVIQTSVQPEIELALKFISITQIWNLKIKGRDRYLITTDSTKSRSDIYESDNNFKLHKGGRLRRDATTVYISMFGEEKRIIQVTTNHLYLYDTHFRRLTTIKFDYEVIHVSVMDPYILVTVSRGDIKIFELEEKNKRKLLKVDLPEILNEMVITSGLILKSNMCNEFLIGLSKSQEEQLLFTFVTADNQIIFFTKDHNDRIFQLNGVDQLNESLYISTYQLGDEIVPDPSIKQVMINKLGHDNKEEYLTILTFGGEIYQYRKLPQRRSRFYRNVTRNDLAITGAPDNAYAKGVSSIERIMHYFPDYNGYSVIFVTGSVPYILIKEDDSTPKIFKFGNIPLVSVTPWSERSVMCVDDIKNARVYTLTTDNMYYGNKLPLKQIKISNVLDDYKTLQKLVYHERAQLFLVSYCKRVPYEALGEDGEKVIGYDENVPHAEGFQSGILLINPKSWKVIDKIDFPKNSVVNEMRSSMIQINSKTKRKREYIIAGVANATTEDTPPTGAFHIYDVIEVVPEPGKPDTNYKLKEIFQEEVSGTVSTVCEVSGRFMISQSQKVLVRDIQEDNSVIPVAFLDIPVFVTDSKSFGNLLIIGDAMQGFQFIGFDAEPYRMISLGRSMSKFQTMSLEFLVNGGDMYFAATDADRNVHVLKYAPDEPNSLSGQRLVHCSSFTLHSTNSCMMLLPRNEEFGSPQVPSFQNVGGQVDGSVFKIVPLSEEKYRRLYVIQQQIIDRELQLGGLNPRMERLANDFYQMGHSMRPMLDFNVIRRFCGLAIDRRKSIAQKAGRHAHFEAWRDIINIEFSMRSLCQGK
Put plainly: cryo-EM structure; sample of polymerase module, Mpe1, Cft2(S) and precleaved CYC1 RNA; only the polymerase module and the yPIM of Cft2 are seen in the map. Particulars: both partners purified.

T1 sequence (P29468 whole entry, chain 2 of 2): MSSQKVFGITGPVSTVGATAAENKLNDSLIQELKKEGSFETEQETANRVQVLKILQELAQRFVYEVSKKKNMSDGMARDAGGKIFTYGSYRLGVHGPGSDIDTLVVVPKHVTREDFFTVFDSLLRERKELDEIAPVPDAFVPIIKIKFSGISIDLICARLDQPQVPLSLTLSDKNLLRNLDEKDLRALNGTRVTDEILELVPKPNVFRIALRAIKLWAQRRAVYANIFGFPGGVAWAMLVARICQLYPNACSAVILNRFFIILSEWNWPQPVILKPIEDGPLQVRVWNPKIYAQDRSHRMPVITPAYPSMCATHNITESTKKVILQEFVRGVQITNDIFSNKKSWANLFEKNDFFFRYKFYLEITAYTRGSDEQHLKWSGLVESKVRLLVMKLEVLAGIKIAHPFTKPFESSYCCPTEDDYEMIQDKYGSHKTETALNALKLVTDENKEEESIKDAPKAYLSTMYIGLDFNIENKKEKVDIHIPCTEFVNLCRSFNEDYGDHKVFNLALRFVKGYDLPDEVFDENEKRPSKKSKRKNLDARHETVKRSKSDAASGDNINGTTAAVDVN
T1 sequence (P45976 whole entry, chain 4 of 2): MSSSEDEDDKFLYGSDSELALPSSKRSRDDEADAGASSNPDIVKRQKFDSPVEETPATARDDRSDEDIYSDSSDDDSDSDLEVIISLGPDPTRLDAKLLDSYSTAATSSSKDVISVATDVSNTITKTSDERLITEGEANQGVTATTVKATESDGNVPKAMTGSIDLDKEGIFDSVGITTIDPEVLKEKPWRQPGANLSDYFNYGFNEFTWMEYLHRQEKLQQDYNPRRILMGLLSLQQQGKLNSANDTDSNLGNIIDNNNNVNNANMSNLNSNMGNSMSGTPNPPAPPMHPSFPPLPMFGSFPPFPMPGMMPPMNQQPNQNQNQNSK

B1: Cft2 (untagged, co-expressed with the polymerase module) (natural protein, S. cerevisiae, UniProt Q12102 1-859, looked up)
chain: MTYKYNCCDDGSGTTVGSVVRFDNVTLLIDPGWNPSKVSYEQCIKYWEKVIPEIDVIILSQPTIECLGAHSLLYYNFTSHFISRIQVYATLPVINLGRVSTIDSYASAGVIGPYDTNKLDLEDIEISFDHIVPLKYSQLVDLRSRYDGLTLLAYNAGVCPGGSIWCISTYSEKLVYAKRWNHTRDNILNAASILDATGKPLSTLMRPSAIITTLDRFGSSQPFKKRSKIFKDTLKKGLSSDGSVIIPVDMSGKFLDLFTQVHELLFESTKINAHTQVPVLILSYARGRTLTYAKSMLEWLSPSLLKTWENRNNTSPFEIGSRIKIIAPNELSKYPGSKICFVSEVGALINEVIIKVGNSEKTTLILTKPSFECASSLDKILEIVEQDERNWKTFPEDGKSFLCDNYISIDTIKEEPLSKEETEAFKVQLKEKKRDRNKKILLVKRESKKLANGNAIIDDTNGERAMRNQDILVENVNGVPPIDHIMGGDEDDDEEEENDNLLNLLKDNSEKSAAKKNTEVPVDIIIQPSAASKHKMFPFNPAKIKKDDYGTVVDFTMFLPDDSDNVNQNSRKRPLKDGAKTTSPVNEEDNKNEEEDGYNMSDPISKRSKHRASRYSGFSGTGEAENFDNLDYLKIDKTLSKRTISTVNVQLKCSVVILNLQSLVDQRSASIIWPSLKSRKIVLSAPKQIQNEEITAKLIKKNIEVVNMPLNKIVEFSTTIKTLDISIDSNLDNLLKWQRISDSYTVATVVGRLVKESLPQVNNHQKTASRSKLVLKPLHGSSRSHKTGALSIGDVRLAQLKKLLTEKNYIAEFKGEGTLVINEKVAVRKINDAETIIDGTPSELFDTVKKLVTDMLAKI
notes: Cft2, S. cerevisiae, pseudo-nuclease subunit of the nuclease module of CPF; source: Sf9, co-infected with viruses for the polymerase module (Pfs2-SII) and Ysh1-Cft2; in lysate, and co-purified with the polymerase module (Strep-Tactin, MonoQ)
Regarding B1, the binding result in assay [1] was “binds”.

B2: Yth1 (natural protein, S. cerevisiae)
chain: MSLIHPDTAKYPFKFEPFLRQEYSFSLDPDRPICEFYNSREGPKSCPRGPLCPKKHVLPIFQNKIVCRHWLRGLCKKNDQCEYLHEYNLRKMPECVFFSKNGYCTQSPDCQYLHIDPASKIPKCENYEMGFCPLGSSCPRRHIKKVFCQRYMTGFCPLGKDECDMEHPQFIIPDEGSKLRIKRDDEINTRKMDEEKERRLNAIINGEV
notes: Yth1, S. cerevisiae, subunit of the polymerase module of CPF; E. coli codon-optimized gene (GeneArt); source: Sf9, baculovirus, co-expressed with Mpe1-SII, in lysate; also as subunit of the purified polymerase module (Sf9)
B2: the binding result in assay [2] is reported as “binds”.

B3: Pfs2 (natural protein, S. cerevisiae)
chain: MDGHNQNQYQNQNQIQQSQQPPLKKYVTQRRSVDVSSPYINLYYNRRHGLPNLVVEPETSYTIDIMPPNAYRGRDRVINLPSKFTHLSSNKVKHVIPAIQWTPEGRRLVVATYSGEFSLWNASSFTFETLMQAHDSAVTTMKYSHDSDWMISGDADGMIKIWQPNFSMVKEIDAAHTESIRDMAFSSNDSKFVTCSDDNILKIWNFSNGKQERVLSGHHWDVKSCDWHPEMGLIASASKDNLVKLWDPRSGNCISSILKFKHTVLKTRFQPTKGNLLMAISKDKSCRVFDIRYSMKELMCVRDETDYMTLEWHPINESMFTLACYDGSLKHFDLLQNLNEPILTIPYAHDKCITSLSYNPVGHIFATAAKDRTIRFWTRARPIDPNAYDDPTYNNKKINGWFFGINNDINAVREKSEFGAAPPPPATLEPHALPNMNGFINKKPRQEIPGIDSNIKSSTLPGLSI
notes: Pfs2, S. cerevisiae, subunit of the polymerase module of CPF; E. coli codon-optimized gene (GeneArt); source: Sf9, baculovirus, co-expressed with Mpe1-SII, in lysate; also as subunit of the purified polymerase module (Sf9)
Turning to B3, the binding result in assay [3] is “binds”.

B4: StrepII-tagged Mpe1 (Mpe1-SII) (natural protein, S. cerevisiae)
chain: MSSTIFYRFKSQRNTSRILFDGTGLTVFDLKREIIQENKLGDGTDFQLKIYNPDTEEEYDDDAFVIPRSTSVIVKRSPAIKSFSVHSRLKGNVGAAALGNATRYVTGRPRVLQKRQHTATTTANVSGTTEEERIASMFATQENQWEQTQEEMSAATPVFFKSQTNKNSAQENEGPPPPGYMCYRCGGRDHWIKNCPTNSDPNFEGKRIRRTTGIPKKFLKSIEIDPETMTPEEMAQRKIMITDEGKFVVQVEDKQSWEDYQRKRENRQIDGDETIWRKGHFKDLPDDLKCPLTGGLLRQPVKTSKCCNIDFSKEALENALVESDFVCPNCETRDILLDSLVPDQDKEKEVETFLKKQEELHGSSKDGNQPETKKMKLMDPTGTAGLNNNTSLPTSVNNGGTPVPPVPLPFGIPPFPMFPMPFMPPTATITNPHQADASPKK
notes: Mpe1, S. cerevisiae, subunit of the nuclease module of CPF; no cleavage is told; also called WT Mpe1; Mpe1-3C-SII; source: Sf9, baculovirus; in lysate, and purified (Strep-Tactin, MonoQ)
With B4, in assay [4], the binding result was “binds”.
In the case of B5, the binding result in assay [5] is “binds”.
